Experimental data taken from PMC8096270.

Assays:
[1] = target: Full-length MMTV Gag polypeptide with a C-terminus hexa-histidine tag (Pr77^Gag-His6-tag protein) (mouse mammary tumor virus (MMTV)); test: dynamic light scattering; Pr77^Gag in storage buffer (50 mM Tris-HCl pH 8.0, 1 M NaCl), 20°C; mean hydrodynamic radius based on number distribution
[2] = test system: Pr77Gag (Gag precursor polyprotein) (Mouse mammary tumor virus (strain not stated; HYB-MTV?)); test: EMSA; details: competition, filter binding: 30 mM Tris pH 7.5, 300 mM NaCl, 5 mM MgCl2, DTT (10 mM in protein diluent), 0.01% Triton X-100, BSA, 37 C 30 min then ice …

Full-length MMTV Gag polypeptide with a C-terminus hexa-histidine tag (Pr77^Gag-His6-tag protein) (natural protein)
stoichiometry N [1]: 3

WT unspliced gRNA nt 1-712 (SA35)
Kd [2]: 480 nM
